Results: US20260166154A1, “METHODS FOR TREATING OBESITY” (AMGEN INC., priority 2022, published 2026)

Key:
[1] = Phase 1 MAD cohorts: pharmacodynamic markers (fasting glucose, glucagon, HbA1c, hs-CRP); assay type: in vivo, human; details: for hs-CRP reduction: day 127
From the text: (§1) Enrollment into the SAD and MAD cohorts was sequential.
(§2) No missing data was imputed.

[2] = Phase 1 SAD/MAD clinical study: body weight, BMI, waist circumference; assay type: in vivo, human; details: for decrease in body weight: MAD 420 mg Q4W
Method: Eligible participants were women of non-reproductive potential and men aged 18 to 65 years with a body mass index (BMI) between 30.0 kg/m2 and 40.0 kg/m2 and HbA1c≤6.5% and/or a fasting glucose of […]125 mg/dl. Participants had normal vital signs, 12-lead electrocardiogram results and clinical laboratory tests at the time of randomization.
as §1, §2

[3] = Phase 1 SAD/MAD clinical study: safety and tolerability (TEAEs, vital signs)
Method: This was a first-in-human, double-blind, randomized, placebo-controlled study comprised of two parts: single ascending dose (SAD) and multiple ascending dose (MAD) in participants with obesity.
Participants were randomly assigned to receive AMG133 or placebo in a ratio of 3:1. […] The MAD evaluated 3 doses given every 4 weeks on Days 1, 29 and 57. […] Enrollment into the SAD and MAD cohorts was sequential. Subsequent cohorts were dosed after the dosing regimen in the preceding cohort had been recommended by the Dose Level Review Team (DLRT) to be safe and well tolerated based on the safety and laboratory data through at least day 15. […] Placebo was provided as normal saline, the volume matching the investigational drug at each dose level.
The primary endpoints were the participant incidence of treatment-emergent adverse events, changes in laboratory safety tests, vital signs, and 12-lead electrocardiograms. […] The exploratory endpoints were pharmacodynamic parameters including, but not limited to, concentrations of fasting glucose, insulin, c-peptide, glucagon,, hemoglobin A1c, changes in body weight, waist circumference, and BMI.
The sample size for this trial was not based on any statistical inferences. As the trial was an exploratory first-in-human study with a small sample size, all pharmacokinetic, pharmacodynamic and safety parameters were analyzed descriptively. Participants who withdrew from the study prior to day 15 in the SAD or day 36 in the MAD were replaced so that the target numbers of participants for safety review and data collection would be achieved; replacement participants were assigned to receive the same treatment as the withdrawn participant. […] The safety analysis set was the same as the full analysis set. […] No missing data was imputed.

[4] = Predicted exposure multiples based on NOAEL established in cynomolgus monkeys; design: species or system cynomolgus monkey; details: NOAEL 120 mg/kg in cynomolgus monkeys
From the text: (§3) The rationale for dose selection for Part C is based on the available PK data from this ongoing FIH study cohorts 1 to 11 (Part A and Part B) and the NOAEL exposures established based on 13-week GLP repeat-dose studies in mouse and cynomolgus monkeys.

[5] = Predicted exposure multiples based on NOAEL established in mice; design: species or system mouse; details: NOAEL 150 mg/kg in mice
From the text: as §3

[6] = Phase 1 SAD/MAD clinical study (NCT04478708): pharmacokinetics; assay type: in vivo, human
From the text: as §1, §2

[7] = Intact AMG 133, cohort 13, 420 mg SC
[8] = Total AMG 133, cohort 12, 420 mg SC
[9] = Total AMG 133, cohort 13, 420 mg SC
[10] = Intact AMG 133, cohort 12, 420 mg SC

With maridebart cafraglutide [AMG 133] the hs-CRP reduction ([1]; MAD 140 mg) was “normalized to baseline”, the glucagon ([1]; MAD 280 mg, day 85 and day 127) was “greatest reduction in glucagon was observed at day 85 which normalized by day 127” and the fasting glucose ([1]; MAD 420 mg, safety follow up (day 127)) was “lower glucose levels were maintained”. The fasting glucose ([1]; MAD 140 and 280 mg, safety follow up (day 127)) was “returned to above baseline”, the fasting glucose ([1]; MAD 140 and 420 mg, day 29 and 85) was “decreased in a dose-responsive manner” and the hs-CRP reduction ([1]; MAD 280 and 420 mg) was “sustained until day 127”. The “hs-CRP change from baseline” value ([1]; MAD cohorts) was “dose-responsive decrease”, the HbA1c levels ([1]; MAD, all three dose groups, normal range at baseline) was “decreased in all three dose groups but trended towards baseline at day 127” and the “maximal reduction of body weight from baseline” value ([2]; MAD 140 mg Q4W, after 3 doses, day 78) was 7.44%. The “reduction of body weight from baseline” value ([2]; MAD 140 mg Q4W, post-dose day 7) was 1.97%, the waist circumference ([2]; MAD 140 mg and 420 mg) was “dose-dependent decrease” and the waist circumference ([2]; MAD 280 mg) was “fluctuations in waist circumference changes”. The “decrease in body weight” value ([2]; day 7) was −4.86%, the “decrease in body weight” value ([2]; day 85) was −14.5% and the “duration of body weight reduction” value ([2]; MAD cohorts, multiple doses) was “maintained until end of study day 207”. The “change from baseline in BMI” value ([2]; SAD and MAD) was “followed a similar pattern as the change in body weight”, the “duration of body weight decrease” value ([2]; all SADs except lowest dose 21 mg) was “maintained until day 150” and the “change in mean body weight from baseline” value ([2]; all dose levels (SADs and MADs)) was “decreases in mean body weight from baseline”. For the same substance, the “maximal decrease of body weight from baseline” value ([2]; single dose 21 mg, day 29) was 2.39%, the “mean percent change of body weight from baseline” value ([2]; single dose 21 mg, post-dose day 6) was −1.59% and the “mean percent change of body weight from baseline” value ([2]; single dose 840 mg, day 6) was −2.85%. The “maximal decrease of body weight from baseline” value ([2]; single dose 840 mg, day 92) was 8.24%, the heart rate ([3]; MAD cohorts) was “the 280 mg cohort had higher heart rates than the 140 mg or 420 mg cohort” and the nausea and vomiting ([3]; MAD cohorts) was “all participants who received AMG 133 experienced mild nausea and vomiting”. The “subjects reporting mild GI-related adverse events (mainly nausea, vomiting, diarrhea)” value ([3]; MAD cohorts 7 to 10, after the first dose) was “Approximately 90%”, the “subjects experiencing GI-related adverse events” value ([3]; MAD cohorts 7 to 10, after the second dose) was “less than 5%” and the “serious adverse events or deaths” value ([3]; MAD cohorts 7 to 10, any dose) was “no serious adverse events or deaths reported after any of the doses”. The “subjects who discontinued the study prior to receiving the second dose” value ([3]; MAD trial) was “Approximately 26%”, the “serious TEAEs, TEAEs leading to permanent discontinuation, severe TEAEs” value ([3]; SAD and MAD) was “No serious TEAEs, TEAEs leading to permanent discontinuation, or severe TEAEs were reported” and the tolerability ([3]; SAD and MAD participants) was “tolerated AMG 133 well”. The dyspepsia ([3]; SAD cohorts) was “more frequently reported with lower doses (70 mg and 140 mg)”, the heart rate ([3]; SAD cohorts) was “increased with a single dose of 280, 560 or 840 mg AMG 133 but not in a dose-dependent manner” and the nausea and vomiting ([3]; SAD cohorts) was “reported in participants treated with ≥70 mg AMG 133”. For the same substance, the “severity of GI-related TEAEs” value ([3]; SAD cohorts) was “all GI-related TEAEs were mild except one participant in the 140 mg cohort had moderate GI symptoms”, the “serious adverse events or deaths” value ([3]; SAD cohorts 1 to 6 and 11) was “no serious adverse events or deaths have been reported” and the “subjects who withdrew consent due to GI-related adverse events” value ([3]; cohort 9, after 420 mg dose on day 1) was 50%. For the same substance, the blood pressure ([3]; single dose or multiple doses) was “No meaningful changes in blood pressure”, the “Predicted Exposure Multiples Monkey AUC” value [4, 7] was ~43.2 fold and the “Predicted Exposure Multiples Monkey AUC” value [4, 8] was 48.9 fold. The “Predicted Exposure Multiples Monkey AUC” value [4, 9] was ~45.5 fold, the “Predicted Exposure Multiples Mouse AUC” value [5, 10] was ~42.4 fold and the “Predicted Exposure Multiples Mouse Cmax” value [5, 10] was ~43 fold. The “Predicted Exposure Multiples Mouse AUC” value [5, 7] was ~40.6 fold, the “Predicted Exposure Multiples Mouse Cmax” value [5, 7] was ~41.3 fold and the “Predicted Exposure Multiples Mouse AUC” value [5, 8] was 51 fold. The “Predicted Exposure Multiples Mouse Cmax” value [5, 8] was 54.3 fold, the “Predicted Exposure Multiples Mouse AUC” value [5, 9] was ~47.5 fold and the “Predicted Exposure Multiples Mouse Cmax” value [5, 9] was ~50.9 fold. The “dose proportionality of pharmacokinetics” value ([6]; doses 21 mg to 840 mg) was “dose-proportional” and the “pharmacokinetics linearity based on Cmax” value ([6]; preliminary review, FIH SAD and MAD, AUC data pending) was “linear, dose proportional kinetics”.
